{"source": "paper PMC3557803", "proteins": {"B1": {"name": "Arad3529 (Rhizobium rhizogenes K84) (protein)", "chain": "MSYSFMSPPNAARFVLSNATVPAVTVVGFTGPSSEGLMKADIVVADGLIKDILPAGTAPAELAKADMRDGMVWPTFADMHTHLDKGHIWERRANPDGSFMGALDAVRSDREANWSAADVRKRMEFSLRAAYAHGTSLIRTHLDSLAPQHRISFEVFSEVREAWKDKIALQAVALFPLDFMVDDAFFADLTTVVREAGGLLGGVTQMNPDIDAQLDKLIRAAAANGLDIDLHVDETEDREVLTLKAIAAAVLRNGFTGKVTAGHCCSLARQDENVAAATIDLVAKAGISIVALPMCNMYLQDRHPGRTPRWRGVTLLHELAAAGVPTAVASDNTRDPFYAYGDLDPVEVFREAVRILHLDHPLDTAARVVTTSPASILGRPDIGRIAVGGPADLVLFSARRWSEFLSRPQSDRVVLRKGKVIDRSLPDYRELDTVIGA"}}, "assay_in_all_cases": "UV-visible absorbance assay of deamination", "type_in_all_cases": "biochemical, Martinezella rhizogenes", "settings_in_all_cases": "20 mM HEPES pH 7.7", "key": {"[1]": {"substrate": "C[C@H](O)C(=O)C1=Nc2c(nc(N)[nH]c2=O)NC1"}, "[2]": {"substrate": "C[C@H](O)[C@H](O)C1=Nc2c(nc(N)[nH]c2=O)NC1"}, "[3]": {"substrate": "C[C@H](O)[C@H](O)c1cnc2[nH]c(N)nc(=O)c2n1"}, "[4]": {"substrate": "Nc1nc2[nH]c(=O)cnc2c(=O)[nH]1"}, "[5]": {"substrate": "Nc1nc2c(c(=O)[nH]1)N=C(CO)CN2"}, "[6]": {"substrate": "Nc1nc2c(c(=O)[nH]1)N=C([C@H](O)[C@H](O)CO)CN2"}, "[7]": {"substrate": "Nc1nc2nc(C(=O)O)cnc2c(=O)[nH]1"}, "[8]": {"substrate": "Nc1nc2ncc(C(=O)O)nc2c(=O)[nH]1"}, "[9]": {"substrate": "Nc1nc2ncc(C=O)nc2c(=O)[nH]1"}, "[10]": {"substrate": "Nc1nc2ncc(CNc3ccc(C(=O)N[C@@H](CCC(=O)O)C(=O)O)cc3)nc2c(=O)[nH]1"}, "[11]": {"substrate": "Nc1nc2ncc(CO)nc2c(=O)[nH]1"}, "[12]": {"substrate": "Nc1nc2ncc([C@H](O)[C@H](O)CO)nc2c(=O)[nH]1"}, "[13]": {"substrate": "Nc1nc2nccnc2c(=O)[nH]1"}}, "data": [{"protein": "B1", "values": [{"measurement": "Km", "setting": "[1]", "result": "22 ± 9", "unit": "µM"}, {"measurement": "kcat", "setting": "[1]", "result": "2.9 ± 0.3", "unit": "s⁻¹"}, {"measurement": "kcat/Km", "setting": "[1]", "result": 130000, "unit": "M⁻¹ s⁻¹"}, {"measurement": "Km", "setting": "[2]", "result": "93 ± 13", "unit": "µM"}, {"measurement": "kcat", "setting": "[2]", "result": "0.09 ± 0.007", "unit": "s⁻¹"}, {"measurement": "kcat/Km", "setting": "[2]", "result": 930, "unit": "M⁻¹ s⁻¹"}, {"measurement": "Km", "setting": "[3]", "result": "47 ± 9", "unit": "µM"}, {"measurement": "kcat", "setting": "[3]", "result": "46 ± 4", "unit": "s⁻¹"}, {"measurement": "kcat/Km", "setting": "[3]", "result": "1e+06", "unit": "M⁻¹ s⁻¹"}, {"measurement": "Km", "setting": "[4]", "result": "5.7 ± 0.5", "unit": "µM"}, {"measurement": "kcat", "setting": "[4]", "result": "1.6 ± 0.1", "unit": "s⁻¹"}, {"measurement": "kcat/Km", "setting": "[4]", "result": 280000, "unit": "M⁻¹ s⁻¹"}, {"measurement": "Km", "setting": "[5]", "result": "37 ± 7", "unit": "µM"}, {"measurement": "kcat", "setting": "[5]", "result": "1.2 ± 0.1", "unit": "s⁻¹"}, {"measurement": "kcat/Km", "setting": "[5]", "result": 33000, "unit": "M⁻¹ s⁻¹"}, {"measurement": "Km", "setting": "[6]", "result": "200 ± 100", "unit": "µM"}, {"measurement": "kcat", "setting": "[6]", "result": "0.036 ± 0.008", "unit": "s⁻¹"}, {"measurement": "kcat/Km", "setting": "[6]", "result": 260, "unit": "M⁻¹ s⁻¹"}, {"measurement": "Km", "setting": "[7]", "result": "13 ± 1", "unit": "µM"}, {"measurement": "kcat", "setting": "[7]", "result": "48 ± 2", "unit": "s⁻¹"}, {"measurement": "kcat/Km", "setting": "[7]", "result": "3.7e+06", "unit": "M⁻¹ s⁻¹"}, {"measurement": "Km", "setting": "[8]", "result": "27 ± 2", "unit": "µM"}, {"measurement": "kcat", "setting": "[8]", "result": "110 ± 3", "unit": "s⁻¹"}, {"measurement": "kcat/Km", "setting": "[8]", "result": "4e+06", "unit": "M⁻¹ s⁻¹"}, {"measurement": "Km", "setting": "[9]", "result": "12 ± 2", "unit": "µM"}, {"measurement": "kcat", "setting": "[9]", "result": "64 ± 12", "unit": "s⁻¹"}, {"measurement": "kcat/Km", "setting": "[9]", "result": "5.2e+06", "unit": "M⁻¹ s⁻¹"}, {"measurement": "Km", "setting": "[10]", "result": "50 ± 10", "unit": "µM"}, {"measurement": "kcat", "setting": "[10]", "result": "6.4 ± 0.5", "unit": "s⁻¹"}, {"measurement": "kcat/Km", "setting": "[10]", "result": 130000, "unit": "M⁻¹ s⁻¹"}, {"measurement": "Km", "setting": "[11]", "result": "23 ± 3", "unit": "µM"}, {"measurement": "kcat", "setting": "[11]", "result": "28 ± 1", "unit": "s⁻¹"}, {"measurement": "kcat/Km", "setting": "[11]", "result": "1.2e+06", "unit": "M⁻¹ s⁻¹"}, {"measurement": "Km", "setting": "[12]", "result": "61 ± 7", "unit": "µM"}, {"measurement": "kcat", "setting": "[12]", "result": "19 ± 1", "unit": "s⁻¹"}, {"measurement": "kcat/Km", "setting": "[12]", "result": 310000, "unit": "M⁻¹ s⁻¹"}, {"measurement": "Km", "setting": "[13]", "result": "39 ± 4", "unit": "µM"}, {"measurement": "kcat", "setting": "[13]", "result": "131 ± 4", "unit": "s⁻¹"}, {"measurement": "kcat/Km", "setting": "[13]", "result": "3.3e+06", "unit": "M⁻¹ s⁻¹"}]}]}
